The values that follow come from patent US20170334954A1.

For assay [1], the target named is human polyclonal IgG (Gammanorm) (human). Kind of assay: column 10% breakthrough capacity, ligand content 10.8 mg/ml; 0.5 M NaOH; ratio to reference Zvar4.
The target is the same in assay [2]. Briefly: column 10% breakthrough capacity, ligand on agarose beads, ligand content 10.8 mg/ml; after 24 h in 0.5 M NaOH.
For assay [3] the target is unchanged. Kind of assay: column 10% breakthrough capacity, ligand on agarose beads, ligand content 10.8 mg/ml, 6 min residence time; before NaOH.
The target is the same in assay [4]. Kind of assay: column 10% breakthrough capacity, ligand content 9.7 mg/ml; 0.5 M NaOH; ratio to reference Zvar4.
Assay [5] has the same target. Briefly: column 10% breakthrough capacity, ligand content 9.7 mg/ml; 1.0 M NaOH; ratio to reference Zvar4.
Assay [6] shares this target. Kind of assay: column 10% breakthrough capacity, ligand on agarose beads, ligand content 9.7 mg/ml; after 24 h in 0.5 M NaOH.
Assay [7] shares this target. Kind of assay: column 10% breakthrough capacity, ligand on agarose beads, ligand content 9.7 mg/ml, 6 min residence time; before NaOH.
The target is the same in assay [8]. The assay is described as above. This is another data set of the same source.
For assay [9] the target is unchanged. Kind of assay: column 10% breakthrough capacity, ligand on agarose beads, ligand content 9.7 mg/ml; after six 4 h cycles in 1.0 M NaOH.
For assay [10] the target is unchanged. Briefly: column 10% breakthrough capacity, ligand content […]; 0.5 M NaOH; ratio to reference Zvar4.
Assay [11] shares this target. Briefly: column 10% breakthrough capacity, ligand content 7.0 mg/ml; 0.5 M NaOH; ratio to reference Zvar4.
For assay [12] the target is unchanged. Kind of assay: column 10% breakthrough capacity, ligand on agarose beads, ligand content […]; after 24 h in 0.5 M NaOH.
Assay [13] shares this target. Briefly: column 10% breakthrough capacity, ligand on agarose beads, ligand content 7.0 mg/ml; after 24 h in 0.5 M NaOH.
Assay [14] shares this target. Kind of assay: column 10% breakthrough capacity, ligand on agarose beads, ligand content […], 6 min residence time; before NaOH.
The target is the same in assay [15]. Briefly: column 10% breakthrough capacity, ligand on agarose beads, ligand content 7.0 mg/ml, 6 min residence time; before NaOH.
Assay [16] has the same target. Briefly: column 10% breakthrough capacity, ligand content […]; 1.0 M NaOH; ratio to reference Zvar4.
Assay [17] has the same target. Briefly: column 10% breakthrough capacity, ligand content 7.2 mg/ml; 0.5 M NaOH; ratio to reference Zvar4.
The target is the same in assay [18]. Kind of assay: column 10% breakthrough capacity, ligand on agarose beads, ligand content 7.2 mg/ml; after 24 h in 0.5 M NaOH.
For assay [19] the target is unchanged. Kind of assay: column 10% breakthrough capacity, ligand on agarose beads, ligand content […], 6 min residence time; before NaOH. The source holds these as a separate data set.
For assay [20] the target is unchanged. Kind of assay: column 10% breakthrough capacity, ligand on agarose beads, ligand content […]; after six 4 h cycles in 1.0 M NaOH.
Assay [21] has the same target. Briefly: column 10% breakthrough capacity, ligand on agarose beads, ligand content 7.2 mg/ml, 6 min residence time; before NaOH.

In the case of “Zvar(Q9A, N11K, H18K, D37E, A42R)4 with an additional N-terminal cysteine (agarose bead ligand) (designed binder)”, in assay [1], the Capacity retention relative to ref. after six 4 h cycles amounted to 1.3. Besides, in assay [2], the Remaining IgG capacity Qb10 after six 4 h cycles was 52.5 mg/mL and the Remaining IgG capacity after six 4 h cycles (%) was determined as 92%. The Initial IgG capacity Qb10 in assay [3] was 56.9 mg/mL.

Take “Zvar(N11K, H18K, S33K, D37E, A42R, N43A, L44I, K50R, L51Y)4 with an additional N-terminal cysteine (agarose bead ligand) (designed binder)”: the values for the Capacity retention relative to ref. after six 4 h cycles in assay [4] and in [5] were 1.53 and 1.44, respectively. Also, the Remaining IgG capacity Qb10 after six 4 h cycles came to 52 mg/mL in [6] and 48.1 mg/mL in assay [9]. Moreover, the Remaining IgG capacity after six 4 h cycles (%) in [6] was found to be 92%; in [9], 77%. The results for the Initial IgG capacity Qb10 in [7] and in assay [8] were 56.3 mg/mL and 62.1 mg/mL, respectively.

With “Zvar(Q9A, N11E, N28A, N43A)4 with an additional N-terminal cysteine (agarose bead ligand) (designed binder)”, the Capacity retention relative to ref. after six 4 h cycles in assay [10] came to 1.31; in [11], 1.5. Also, the Remaining IgG capacity Qb10 after six 4 h cycles in [12] was determined as 46.2 mg/mL; in assay [13], 44.1 mg/mL. For the same substance, the Remaining IgG capacity after six 4 h cycles (%) in assay [12] was found to be 93%; in assay [13] it was 90%. Besides, the Initial IgG capacity Qb10 is 50 mg/mL in assay [14] and 49.1 mg/mL in assay [15].

In the case of “Zvar(Q9A, N11E, Q40V, A42K, N43A, L44I)4 with an additional N-terminal cysteine (agarose bead ligand) (designed binder)”, the Capacity retention relative to ref. after six 4 h cycles in assay [10] is 1.34; in [16] it was 1.67; in assay [17] it was 1.5. Also, the Remaining IgG capacity Qb10 after six 4 h cycles was 53.6 mg/mL in [12], 44.2 mg/mL in [18] and 56 mg/mL in assay [20]. Also, the Remaining IgG capacity after six 4 h cycles (%) in assay [12] is 95%; in assay [18] it was 90%; in assay [20] it was 93%. In addition, the Initial IgG capacity Qb10 in [14] is 56.3 mg/mL; in assay [19] it was 60.3 mg/mL; in assay [21], 49 mg/mL.
